The results in this text go back to the RNAGym collection of RNA variant scans (doi:10.7554/elife.90254).

The chains are these.
B1: OR4K15 (parent)
chain: GUUAACGGUCAUAGGCCAUGGAAACUAGGAGCACCAUUUCGCUGCCAGUGAAGAAAUGAACAAAGAAAAUCUGGGCCAGGCAGGCAUCAAAAGAAAUAGUCUUGCGCUCAACCAGAAAGUCUGUAAUCAUUUUAAGGGUA

Variants of B1 are the subject of this data set. Nature of the data set: self-cleavage, relative activity (ratio to wild type); higher = more cleavage; in vitro, sequencing; the parent is a self-cleaving ribozyme.
For the variant GUUAACGGUCAUAGGCCAUGGAAACUAGGAGCACCAUUUCGCUGCCAGUGAAGAAAUGAACAAAGAAGAUCUGGGCCAGGCAGGCAUCAAAAGAAAUAGUCUUGCACUCAACCAGAAAGUCUGUAAUCAUUUUAAGGGUA [A68G G106A], the self-cleavage worked out at 0.02.

GUUAACGGUCAUAGGCCAUGGAAACUAGGGGCACCAUUUCGCUGCCAGUGAAGAAAUGAACAAAGAAAAUCUGGGCCAGGCAGGCAUCGAAAGAAAUAGUCUUGCGCUCAACCAGAAAGUCUGUAAUCAUUUUAAGGGUA [A30G A89G]: the self-cleavage was 0.71.

Take GUUAACGGUCAUAGGCCAUGGAAACUAGGAGCACCAUUUCGCUGCCAGUGAAGAAAUGAACAAAGAAAAUCUGGGCCAGGCAGGCAUCAAAAGAAAUAGUCUUGCGCUCAUCCAGAAAGUCUGUACUCAUUUUAAGGGUA [A111U A126C]: the self-cleavage is 0.06.

With GUUAACGGUCAUAGGCCAUGGAAACUAGGAGCACCAUUUCGCUGCCAGUGAAGAAAUGAACAAAGAAAAUCUGGGCCAGGCAGGCAUCAAAAGAAAUAGUCCUGCGCUCUACCAGAAAGUCUGUAAUCAUUUUAAGGGUA [U102C A110U], the self-cleavage is 1.94.

Take GUUAACGGUCAUAGGCCAUGGAAACUAGGAGCUCCAUUUCGCUGCCAGUGAAGAAAUGAACAAAGAAGAUCUGGGCCAGGCAGGCAUCAAAAGAAAUAGUCUUGCGCUCAACCAGAAAGUCUGUAAUCAUUUUAAGGGUA [A33U A68G]: the self-cleavage stood at 1.28.

Consider GUUAACGGUCAUAGGCCAUGGAAACUAGGAGCACCAUUUCGCUGCCAGUGAGGAAAUGAACAAAGAAAAUCUGGGCCAGGCAGGCAUCAAAAGAAAUAGUCUUGCGCUCAACCAGAAAGUCUGUAAUCAUUUUAAGGGAA [A52G U139A], for which the self-cleavage stood at 1.5.

With GUUAACGGUCAUAGGCCAUGGAAACUAGGAGCACCAUUUCGCUGCCAGUGAAGAAAUGAACAAAGAAAAUCUGGGCCAGGCGGGCAUCAAAAGAAAUAGUCUUGCGCUCAACCAGAAAGUCUGUACUCAUUUUAAGGGUA [A82G A126C], the self-cleavage stood at 0.41.

Turning to GUUAACGGUCAUAGGCCAUGGAAACUAGGAGCACCAUUUCGCUGCCAGUGAAGAAGUGAACAAAGAAAAUCUGGGCCAGGCAGGCAUCAAAAGUAAUAGUCUUGCGCUCAACCAGAAAGUCUGUAAUCAUUUUAAGGGUA [A56G A94U], the self-cleavage was found to be 1.08.

Consider GUUAACGGUCAUAGGCCAUGGAAACUAGGAGCACCAUUUCGCUGCCAGUGAAGAAAUUAACAAAGAAAAUCUGGGCCAGGCAGGCAUCAAAAGAAAUAGUCUUGCGAUCAACCAGAAAGUCUGUAAUCAUUUUAAGGGUA [G58U C107A], for which the self-cleavage worked out at 0.03.

Regarding GUUAACGGUCAUAGGCCAUGGAAACUAGGGGCACCAUUUCGCUGCCAGUGAAGAAAUGAACAAAGAAAAUCUGGGCCAGGCAGGCAUCAAAAGAAAUAGACUUGCGCUCAACCAGAAAGUCUGUAAUCAUUUUAAGGGUA [A30G U100A], the self-cleavage stood at 0.49.

Take GUUAACGGUCAUAGGCCAUGGAAACUAGGAGCACCAUUUCGCUGCCAGUGAAGAAAUGAACAAAGAAAAUCUGGGCCGGGCAGGCAACAAAAGAAAUAGUCUUGCGCUCAACCAGAAAGUCUGUAAUCAUUUUAAGGGUA [A78G U87A]: the self-cleavage stood at 0.08.

For GUUAACGGUCAUAGGCCAUGGAAACUAGGAGCACCAUUUCGCUGCCAGCGAAGAAAUGAACAAAGAAAAUCUGGGCCAGGCAGGCAUCAAAAGAAAUAGUCUUGCGCUCAACCAGAAAGUCUGUAAUCGUUUUAAGGGUA [U49C A129G], the self-cleavage is 1.82.

As to GUUAACGGUCAUAGGCCAGGGAAACUAGGAGCACCAUUUCGCUGCCAGUGAAGAAAUGAACAAAGAAAAUCUGGGCCAGGCAGGCAUCAAAAGAAAUAGUCUUGCGCUCAACCAAAAAGUCUGUAAUCAUUUUAAGGGUA [U19G G115A], the self-cleavage is 0.38.

Turning to GUUAACGGUCAUAGGCCAUGGAAACUAGGAGCACCAUUUCGCUGCCAGUGAAGAAAUGAACAAAGAAAAUCUGGGCCAGGCAGGCAUCAAAAGAGAUAGUCUUGCGCUCAACCAAAAAGUCUGUAAUCAUUUUAAGGGUA [A95G G115A], the self-cleavage was determined as 0.19.

On to GUUAACGGUCAUAGGCCAUGGAGACUAGGAGCACCAUUUCGCUGCCAGUGAAGAAAUGAACAAAGAAAAUCUGGGCCAGGCAGGCAUCAAAAGAUAUAGUCUUGCGCUCAACCAGAAAGUCUGUAAUCAUUUUAAGGGUA [A23G A95U], for which the self-cleavage is 2.26.

In the case of GUUAAUGGUCAUAGGCCAUGGAAACUAGGAGCACCAUUUCGCUGCCAGUGAAGAAAUGAACAAAGAAAAUCUGGGCCAGACAGGCAUCAAAAGAAAUAGUCUUGCGCUCAACCAGAAAGUCUGUAAUCAUUUUAAGGGUA [C6U G80A], the self-cleavage was 0.22.

In the case of GUUAACGGUCGUAGGCAAUGGAAACUAGGAGCACCAUUUCGCUGCCAGUGAAGAAAUGAACAAAGAAAAUCUGGGCCAGGCAGGCAUCAAAAGAAAUAGUCUUGCGCUCAACCAGAAAGUCUGUAAUCAUUUUAAGGGUA [A11G C17A], the self-cleavage was found to be 0.61.

With GUAAACGGUCAUAGGCCAUGGAAACUAGGAGCACCAUUUCGCUGCCAGUGAAGAAAUGAACAAAGAAAAUCUGGGCCAGGCAGGCAUCAAAAGAAAUAGUCUUGCGCUCAACCAGAAAGUCCGUAAUCAUUUUAAGGGUA [U3A U122C], the self-cleavage was 1.35.

Turning to GUUGACGGUCAUAGGCCAUGGAAACUAGGAGCACCAUUUCGCUGCCAGUGAAGAAAUGAACAAAGAAAAUCUGGGCCAGGCAGGCAUCAAAGGAAAUAGUCUUGCGCUCAACCAGAAAGUCUGUAAUCAUUUUAAGGGUA [A4G A92G], the self-cleavage came out at 1.18.

As for GUUAACGGUCAUAGGCCAUGGAAACUAGGAGCACCAUUUCGCUGCCAGUGAAGAAAUGAACAAAGAAAAUCUGGGCCAGGCAGGCAUCAAAAGAAAUAGUCUUGCGCUCAACCAGUAAGUCUGUAAUCAUUUCAAGGGUA [A116U U133C], the self-cleavage was found to be 0.21.

For the variant GUUAACGGUCAUAGGCCAUGGAAACUAGGAGCACCAUUCCGCUGCCAGUGAAGAAAUGAACAAAGAAAAUCUGGGCCAGGCAGGCACCAAAAGAAAUAGUCUUGCGCUCAACCAGAAAGUCUGUAAUCAUUUUAAGGGUA [U39C U87C], the self-cleavage worked out at 1.31.

With GUUAACGGUCAUAGGCCAUGGAAACUAGGAGCACCAGUUCGCUGCCGGUGAAGAAAUGAACAAAGAAAAUCUGGGCCAGGCAGGCAUCAAAAGAAAUAGUCUUGCGCUCAACCAGAAAGUCUGUAAUCAUUUUAAGGGUA [U37G A47G], the self-cleavage was 1.16.

For GUUAACGGUCAUAGGCCAUGGAAACUGGGAGCACCGUUUCGCUGCCAGUGAAGAAAUGAACAAAGAAAAUCUGGGCCAGGCAGGCAUCAAAAGAAAUAGUCUUGCGCUCAACCAGAAAGUCUGUAAUCAUUUUAAGGGUA [A27G A36G], the self-cleavage was 1.26.

Regarding GUUAACGGUCACGGGCCAUGGAAACUAGGAGCACCAUUUCGCUGCCAGUGAAGAAAUGAACAAAGAAAAUCUGGGCCAGGCAGGCAUCAAAAGAAAUAGUCUUGCGCUCAACCAGAAAGUCUGUAAUCAUUUUAAGGGUA [U12C A13G], the self-cleavage stood at 1.16.

Regarding GUUAACGGUCAUAGGCCAUGGAAACUAGGAGCACCAUUUCGCUCCCAGUGAAGAAAUGAACAAAGAAAAUCUGGGCCAGGCAGGCAUCAAAAGAAAUAGUCUUGCGCUCAACCAGAAAGUCUGUAAUCAUUUUAAGGGUA [G44C], the self-cleavage turned out to be 1.33.

Regarding GUUAACGGUCAUAGGCCAUGGAAACUAGGAGCACCGUUUCGCUGCCAGUGAAGAAAUGAACAAAGAAAAUCUGGGCCAGGCAGGCAUCAAAAGAAAUAGUCUUGCGCUCAACCAGAAAGUCCGUAAUCAUUUUAAGGGUA [A36G U122C], the self-cleavage stood at 1.25.

GUUAACGGUCAUAGGCCAUGGAAACUAGGAGUACCAUUUCGCUGCCAGUGAAGAAAUGAACAAAGAAAAUCUGGGCCAGGCAGGCAUCAAAAGAAAUAGUCUUGCGCUCAACCAGAAAGUCUGUAAUCAUUUUAAGGGUA [C32U]: the self-cleavage stood at 1.28.

As for GUUAACGGUCAUAGGCCAUGGAAACUAGGAGCACCAUUUCGCUGCCAGUGAAGAAAUGAACAAAGAGAAGCUGGGCCAGGCAGGCAUCAAAAGAAAUAGUCUUGCGCUCAACCAGAAAGUCUGUAAUCAUUUUAAGGGUA [A67G U70G], the self-cleavage came to 0.68.

Regarding GUUAACGGUCAUAGGCCAUGGAAACUAGGAGCACCAUUUCGCUGCCAGUGAAGAAAUGAACUAAGAAAAUCUGGGCCAGGCAGGCAUCAAAAGAAGUAGUCUUGCGCUCAACCAGAAAGUCUGUAAUCAUUUUAAGGGUA [A62U A96G], the self-cleavage turned out to be 1.69.

As for GUUAACGGUCAUAGGCCAUGGAAACUAGGAGCACCAUAUCGCUGCCAGUGAUGAAAUGAACAAAGAAAAUCUGGGCCAGGCAGGCAUCAAAAGAAAUAGUCUUGCGCUCAACCAGAAAGUCUGUAAUCAUUUUAAGGGUA [U38A A52U], the self-cleavage turned out to be 1.64.

Take GUUAACGGUCAUAGGCCAUGGAAACUAGGAGCACCAUUUCGCUGCCAGUGAAGAAAUGAACAAAGAAAAUCUGGGCCAGGCAGGCAUCAAAAGAAAUAGUCUUGCGCUCUACCAGAAAGUCUGUAAUCAUCUUAAGGGUA [A110U U131C]: the self-cleavage was 0.65.

GUUAACGGUCAUAGGCCAUGGAAACUAGGAGCACCAUUUCGCUGCCAGUGAAGAAAUGAACAAAGAAAAUCUGGGCCAGGCAGGCAUCAAAAGAAAUAGUCUUGCGCUCAACCGGAAAGUCUGUAAUCAUUCUAAGGGUA [A114G U132C]: the self-cleavage amounted to 0.24.

Turning to GUUAACGGUCAUAGGCCAUGGAAACUAGGAGCACCAUUUCGCUGCCAGUGAAGGAAUGAACAAAGAAAAUCUGGGCCAGGCAGGCAUCAAAAGAAAUAGUCUUGCGCUCAACCAGAAAGCCUGUAAUCAUUUUAAGGGUA [A54G U120C], the self-cleavage stood at 0.3.

On to GUUAACGGUCAUAGGCCAUGGAAACUAGGAGCACCAUUUCGCUGCCAGUGAAGAAAUGAACAAAGAAAAUCUGGGCCAGGCAGGCAUCAAAAGUAGUAGUCUUGCGCUCAACCAGAAAGUCUGUAAUCAUUUUAAGGGUA [A94U A96G], for which the self-cleavage was 1.29.

For GUUAACGGUCAUAGGCCAUGGAAACUAGGGGCACCAUUUCGCUGCCAGUGAAGAAAUGAACAAAGAAAAUCUGGGCCAGGCAGGCAUCAAAAGAAUUAGUCUUGCGCUCAACCAGAAAGUCUGUAAUCAUUUUAAGGGUA [A30G A96U], the self-cleavage came to 1.72.

Take GUUAACGGUCAUAGGCCAUGGAAGCUAGGAGCACCAUUUCGCUGCCAGUGAAGAAAUGAACAAAGAAAAUCUGGGCCAGGCAGGCAUCAAAAGAAAUAGUCUAGCGCUCAACCAGAAAGUCUGUAAUCAUUUUAAGGGUA [A24G U103A]: the self-cleavage came to 0.42.

On to GUUAACGGUCAUAGGCCAUGGAAACUAGGAGCACCAUUUCGCUGCCAGUGAAGAAAUGAACAAAGAAAAUCUGGGCCAGGCAGGCAUCAAAAGAAAUAGUCUUGCGCUCUACCUGAAAGUCUGUAAUCAUUUUAAGGGUA [A110U A114U], for which the self-cleavage was found to be 0.04.

In the case of GUUAACGGUCAUAGGCCAUGGAAACUAGGAGCACCUUUUCGCUGCCAGUGAAGAGAUGAACAAAGAAAAUCUGGGCCAGGCAGGCAUCAAAAGAAAUAGUCUUGCGCUCAACCAGAAAGUCUGUAAUCAUUUUAAGGGUA [A36U A55G], the self-cleavage came to 1.4.

On to GUUAACGGUCAUAGGCCAUGGAAACUAGGAGCACCAUUUCGCUGCCAGUGAAGAAAUGAACAAAGAAAAUCUGAGCCAGGCAGGCAUCAAAAGAAAUAGUCUUGCGCUCAACCAGAAAGUCUGUAAUCAUUUUAAGGGUU [G74A A140U], for which the self-cleavage amounted to 0.22.

For GUUAACGGUCAUAGGCCAUGGAAACUAGGAGCACCAUUUCGCUGCCAGUGUAGAAAUGAACAAAGAAAAUCUGGGCCAGGCAGGCAUCAAAAGAAAUAGCCUUGCGCUCAACCAGAAAGUCUGUAAUCAUUUUAAGGGUA [A51U U100C], the self-cleavage came out at 2.13.

As for GUUAACGGUCAUAGGCCAUGGAAACUAGGAACACCAUUUCGCUGCCAGUGAAGAAAUGAACAAAGAAAAUCUGGGCCAGGCAGGCAUCAAAAGAAAUAGUCUUGUGCUCAACCAGAAAGUCUGUAAUCAUUUUAAGGGUA [G31A C105U], the self-cleavage worked out at 0.25.
